The target of the experiment is Aβ1-40 fibrils (Homo sapiens (Human)) (UniProt P05067). The experiment can be described thus: saturation radioligand binding to Aβ fibrils in PBS, RT 90 min, Centricon 100 kDa filtration.

Square brackets hold non-standard residues; d marks the D form. Ends that are not written are not given here.

Sequence of Aβ1-40 fibrils (Homo sapiens (Human)) (P05067 672-711 limits assumed): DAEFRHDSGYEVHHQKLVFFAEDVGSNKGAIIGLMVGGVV

B1: 99mTc-peptide (technetium-99m-labeled BBB permeant Aβ-targeted peptide KKLVFFAεKGC) (peptide)
peptide: [dK][dK][dL][dV][dF][dF][dA]KG[dC]
modifications: not fully specified (residue 8); printed as KKLVFFAεKGC; also: 99mTc chelated by εKGC (N3S core)
Take B1: the Kd (as a rule, the concentration at which binding is half-saturated) worked out at 352 nM.
